Article PMC9119168 (Antiviral Research, 2022)
Where no end group is shown, it is not given here. Side-chain parts run from the residue outwards. The star is where a group is joined. Biotin = O=C1N[C@H]2[C@H](CS[C@H]2CCCCC(=O)*)N1; Aoa = not defined here

Key:
[1] = target: T1, SARS-CoV-2 Mac1 (conserved macrodomain of non-structural protein 3), His-tagged (SARS-CoV-2, UniProt P0DTD1); assay: fluorescence polarisation
[2] = target: T1, SARS-CoV-2 Mac1 (conserved macrodomain …); assay: AlphaScreen or HTRF

ARTKQTARKS [fluorescein labeled ADP-ribosylated peptide [5 Flu-ARTKQTARK (Aoa-RADP)S]]
binding result [1]: binds

ARTK(Biotin)QTARK([Aoa-ADP‑ribose])S (reading uncertain) [10 amino acid biotinylated and ADP-ribosylated peptide [ARTK(Bio)QTARK (Aoa-RADP)S]]
binding result [2]: binds
